Results on 1 substance are retold here after US20260048120A1.

The target in the experiment is Fas receptor (Fas, CD95) on human T cells (human) (UniProt P25445). Kind of experiment: cell-based or functional assay.
UniProt P25445, sequence (P25445 26-335): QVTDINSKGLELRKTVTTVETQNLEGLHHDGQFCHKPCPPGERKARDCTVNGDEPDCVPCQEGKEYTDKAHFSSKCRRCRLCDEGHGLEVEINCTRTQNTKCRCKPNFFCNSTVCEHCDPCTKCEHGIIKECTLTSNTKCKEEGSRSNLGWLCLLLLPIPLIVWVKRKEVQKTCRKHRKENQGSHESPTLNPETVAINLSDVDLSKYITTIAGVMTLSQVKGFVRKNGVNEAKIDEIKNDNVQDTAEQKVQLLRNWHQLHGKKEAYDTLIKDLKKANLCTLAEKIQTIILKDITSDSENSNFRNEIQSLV

On to “recombinant human FasL (BioLegend) (from UniProt P48023 134-281) (ligand)”, for which the cell survival rate (Annexin V- & DAPI-) after about 16 h of 100 ng/mL FasL, SPPL3-KO Jurkat T cells was 63.1%; the cell survival rate (Annexin V- & DAPI-) after about 16 h of 100 ng/mL FasL, control (NT-KO) Jurkat T cells stood at 25.7%; the cell survival rate of the Cas9+ sgRNA-iBAR Jurkat T cell library after the first round of 10 ng/ml FasL turned out to be 4%; the cell survival rate of the Cas9+ sgRNA-iBAR Jurkat T cell library after the second round of 10 ng/ml FasL stood at 44.8%. The substance further had a cell survival rate of the Cas9+ sgRNA-iBAR Jurkat T cell library after the third round of 10 ng/ml FasL of 55.5% and a share of CTV-labeled SPPL3-KO primary T cells in a 1:1 mix with CFSE-labeled NT-KO primary T cells after 16 h of 500 ng/mL FasL (49.2% without FasL) of 75.3%.
